From patent publication US20210024610A1 (Hoffmann-La Roche, published 2021)
Where two headings read alike, the source gives them in different places.

Tests used:
Assay in all cases: cell-based or functional assay
[1] = target: T1, human 4-1BB expressed on cells (Jurkat-hu4-1BB-NFκB-luc2 reporter cells; human T cells in PBMC) (human, UniProt Q07011 24-255)
[2] = target: T1, human 4-1BB expressed on cells …; remark: listed apart in the source
[3] = target: T1, human 4-1BB expressed on cells …; remark: listed apart in the source
[4] = target: T1, human 4-1BB expressed on cells …; parameters: unit not given beside the values

T1 sequence (Q07011 24-255): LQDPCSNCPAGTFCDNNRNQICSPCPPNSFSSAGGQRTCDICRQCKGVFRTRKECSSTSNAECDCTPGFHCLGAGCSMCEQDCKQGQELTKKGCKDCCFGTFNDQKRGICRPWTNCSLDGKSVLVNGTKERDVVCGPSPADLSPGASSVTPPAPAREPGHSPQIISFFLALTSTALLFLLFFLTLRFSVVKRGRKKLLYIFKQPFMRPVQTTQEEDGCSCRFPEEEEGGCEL

B1: anti-human 4-1BB clone 20H4.9 human IgG4 (antibody, V domains shown)
VH: QVQLQQWGAGLLKPSETLSLTCAVYGGSFSGYYWSWIRQSPEKGLEWIGEINHGGYVTYNPSLESRVTISVDTSKNQFSLKLSSVTAADTAVYYCARDYGPGNYDWYFDLWGRGTLVTVSS
VL: EIVLTQSPATLSLSPGERATLSCRASQSVSSYLAWYQQKPGQAPRLLIYDASNRATGIPARFSGSGSGTDFTLTISSLEPEDFAVYYCQQRSNWPPALTFCGGTKVEIKR
EC50 of NFκB-activation-induced Luciferase activity, Jurkat-hu4-1BB-NFκB-luc2 reporter cells, with NCI-N87 cells [1]: 0.14 nM
EC50 of NFκB-activation-induced Luciferase activity, Jurkat-hu4-1BB-NFκB-luc2 reporter cells, with KPL-4 cells [2]: 0.02 nM
EC50 of NFκB-activation-induced Luciferase activity, Jurkat-hu4-1BB-NFκB-luc2 reporter cells, with NCI-N87 cells [2]: 0.02 nM
EC50 of NFκB-activation-induced Luciferase activity, Jurkat-hu4-1BB-NFκB-luc2 reporter cells, with SK-Br3 cells [2]: 0.01 nM
EC50 PBMC activation assay, % proliferating CD4, with NCI-N87 cells [3]: 0.01 nM
EC50 PBMC activation assay, % proliferating CD8, with NCI-N87 cells [3]: ~0.03 nM
AUC above background, PBMC activation assay, % proliferating CD4 [4]: 10
AUC above background, PBMC activation assay, % proliferating CD8 [4]: 16
